Test [1] addresses T1, recombinant human CD25 his tagged (UniProt P01589 22-240).
T1 chain: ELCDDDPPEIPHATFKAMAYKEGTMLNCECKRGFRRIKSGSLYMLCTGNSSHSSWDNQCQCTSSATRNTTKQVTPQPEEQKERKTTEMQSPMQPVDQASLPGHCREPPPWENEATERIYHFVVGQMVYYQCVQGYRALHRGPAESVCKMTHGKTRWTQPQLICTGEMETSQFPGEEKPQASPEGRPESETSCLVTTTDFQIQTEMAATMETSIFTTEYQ
Nature of the test: SPR (Biacore 2000).

Test [2] deals with T1, recombinant human CD25 his tagged. As to the kind of experiment: SPR (Biacore 2000). A general note: In SPR one partner is held on a chip, and binding of the other changes the refractive index at the surface.
Test [3] has the same target. As to the kind of experiment: SPR (Biacore 2000).
Test [4] has the same target. Nature of the test: SPR (Biacore 2000).
Test [5] concerns the target T2, recombinant human CD25 his tagged (human, UniProt P01589 22-240, limits assumed).
T2 construct: also called rhCD25 his tagged; rhCD25; not shown: his tag
T2 sequence: T1 chain
Nature of the test: Octet sequential binding, rhCD25 his tagged on Ni-NTA biosensors, first antibody.

Substitutions are numbered along the chain they refer to. Where two headings read alike, the source gives them in different places.

B1: Antibody 7 (antibody, V domains shown)
VH: QVQLQESGPGLVKPSETLSLTCTVSGFSLTSYGIQWVRQPPGKGLEWIGVIWAGGSTNYNSALMSRVTISKDNSKSQFSLKLSSVTAADTAVYYCARAYGYDGSWLAYWGQGTLVTVSS
VL: DIQMTQSPSSLSASVGDRVTITCRASSSVSYMHWYQQKPGKAPKPLIFATSNLASGVPSRFSGSGSGTDYTLTISSLQPEDFATYYCQQWSSNPPTFGGGTKLEIK
As usually defined, the Kd is a measure of binding affinity in units of concentration. As for B1, the Kd in test [1] came to 2.1 nM.

B2: Antibody 1 (antibody, V domains shown)
VH: B1 VH with V37I, S76N
VL: EIVLTQSPATLSLSPGERATLSCRASSSVSYMHWYQQKPGQAPRPLIFATSNLASGIPARFSGSGSGTDFTLTISSLEPEDFAVYYCQQWSSNPPTFGGGTKLEIK
On to B2, for which the Kd in test [2] came out at 1.2 nM.

B3: Antibody 5 (antibody, V domains shown)
VH: B1 VH
VL: B2 VL
In the case of B3, in test [3], the Kd came out at 2.6 nM.

B4: Antibody 6 (antibody, V domains shown)
VH: B1 VH
VL: B2 VL with E1Q, F70Y
Regarding B4, the Kd in test [3] turned out to be 2.9 nM.

B5: Antibody 2 (antibody, V domains shown)
VH: B1 VH with V37I, S76N
VL: B2 VL with E1Q, F70Y
With B5, the Kd in test [2] came out at 4.8 nM.

B6: Antibody 8 (antibody, V domains shown)
VH: B1 VH
VL: B1 VL with D1Q, M4L, A42S
B6: the Kd in test [1] came to 1.7 nM.

B7: Antibody 12 (antibody, V domains shown)
VH: QVQLVESGGGVVQPGGSLRLSCAVSGFSLTSYGIQWVRQAPGKGLEWVSVIWAGGSTNYNSALMSRFTISKDNSKSTLYLQMNSLRAEDTAVYYCARAYGYDGSWLAYWGQGTLVTVSS
VL: B1 VL with D1Q, M4L, A42S
For B7, the Kd in test [4] came to 6.9 nM.

B8: Antibody 4 (antibody, V domains shown)
VH: B1 VH with V37I, S76N
VL: B1 VL with D1Q, M4L, A42S
As to B8, the Kd in test [3] stood at 1.1 nM.

B9: Antibody 3 (antibody, V domains shown)
VH: B1 VH with V37I, S76N
VL: B1 VL
For the molecule B9, the Kd in test [2] was 0.3 nM.

B10: Antibody 11 (antibody, V domains shown)
VH: B7 VH
VL: B1 VL
Turning to B10, in test [4], the Kd turned out to be 10.2 nM.

B11: Antibody 10 (antibody, human IgG1, V domains shown)
VH: B7 VH
VL: B2 VL with E1Q, F70Y
notes: also called Ab10; Antibody 10-hIgG1
B11: the Kd in test [4] was determined as 7.6 nM. The binding result in test [5] is recorded as “binds”.

B12: Antibody 9 (antibody, V domains shown)
VH: B7 VH
VL: B2 VL
Turning to B12, the Kd in test [1] came to 8.8 nM.
